Results published in US20050201999A1.

Target: TcpJ, type 4 prepilin peptidase of Vibrio cholerae (wild-type) (Vibrio cholerae)

Question: How did the % Cleavage of TcpA prepilin by TcpJ in the in vitro cleavage assay turn out when Aprotinin (from UniProt P00974) was run?
Answer: The % Cleavage of TcpA prepilin by TcpJ in the in vitro cleavage assay was 100%.
